Sequences and labels used below:
B1: C8orf76 (parent)
chain: YCAKLCEPQWFYEETESSDDVEVL
B2: PBXIP1 (parent)
chain: FGEDGIFRHDRLRFRDFVDALEDS

Protein stability index data for 94 variants are collected here from the supplement of paper PMC10567573.
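Also: lentivirally expressed fusions sorted by FACS into six bins by GFP to DsRed ratio, PSI derived from sequencing read proportions per bin multiplied by bin number.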

In the first data set the parent is B1. Nature of the data set: protein stability index of a GFP-peptide fusion (GPS, HEK-293T) (PSI 1-6); higher = more stable. Particulars: c terminus: a fixed tail appended.
For YCAKLCEPQWFYEETESSDDVEVN, the protein stability index is 2.36.
Still for that read-out and setting: under YCAKLCEPQWFYEETESSDDVEVD stands 2.56; under YCAKLCEPQWFYEETESSDDVEVR, 2.78; under YCAKLCEPQWFYEETESSDDVEVI, 2.73.
Turning to YCAKLCEPQWFYEETESSDDVEVA, the protein stability index came out at 2.45.
Still for that read-out and setting: next, YCAKLCEPQWFYEETESSDDVEVV: 2.31.
Still for that read-out and setting: under YCAKLCEPQWFYEETESSDDVEVE stands 2.62.
On to YCAKLCEPQWFYEETESSDDVEVP, for which the protein stability index was determined as 2.69.
As to YCAKLCEPQWFYEETESSDDVEVH, the protein stability index was found to be 2.15.
For YCAKLCEPQWFYEETESSDDVEVK, the protein stability index is 3.
Same read-out and setting: next, YCAKLCEPQWFYEETESSDDVEVG: 2.54; YCAKLCEPQWFYEETESSDDVEVW: 1.85; YCAKLCEPQWFYEETESSDDVEVY: 1.76.
The same measure, in the same setting: under YCAKLCEPQWFYEETESSDDVEVF stands 2.43; under YCAKLCEPQWFYEETESSDDVEVM, 2.65.
In the case of YCAKLCEPQWFYEETESSDDVEVS, the protein stability index came out at 2.66.
The same measure, in the same setting: next, YCAKLCEPQWFYEETESSDDVEVC: 2.9; YCAKLCEPQWFYEETESSDDVEVQ: 1.86.
The same measure, in the same setting: next, YCAKLCEPQWFYEETESSDDVEVT: 2.11; YCAKLCEPQWFYEETESSDDVEQL: 2.8.
Still for that read-out and setting: under YCAKLCEPQWFYEETESSDDVEIL stands 2.08; under YCAKLCEPQWFYEETESSDDVEPL, 2.87; under YCAKLCEPQWFYEETESSDDVEFL, 2.45.
Turning to YCAKLCEPQWFYEETESSDDVEML, the protein stability index worked out at 2.48.
Same read-out and setting: under YCAKLCEPQWFYEETESSDDVETL stands 2.17; under YCAKLCEPQWFYEETESSDDVELL, 2.05.
On the same count and under the same terms, under YCAKLCEPQWFYEETESSDDVEYL stands 2.78; under YCAKLCEPQWFYEETESSDDVEHL, 2.62; under YCAKLCEPQWFYEETESSDDVENL, 3.18.
With YCAKLCEPQWFYEETESSDDVEWL, the protein stability index worked out at 1.98.
On the same count and under the same terms, under YCAKLCEPQWFYEETESSDDVEGL stands 2.39.
The same measure, in the same setting: next, YCAKLCEPQWFYEETESSDDVESL: 2.53; YCAKLCEPQWFYEETESSDDVERL: 2.44; YCAKLCEPQWFYEETESSDDVEKL: 1.96.

Variants of B2 are the subject of another data set. The data set is described as above. Particulars: c terminus: a fixed tail appended.
For FGEDGIHRHDRLRFRDFVDALEDS, the protein stability index turned out to be 3.91.
Turning to FGEDGIWRHDRLRFRDFVDALEDS, the protein stability index stood at 1.95.
Still for that read-out and setting: under FGEDGIRRHDRLRFRDFVDALEDS stands 2.84.
Same read-out and setting: under FGEDGIKRHDRLRFRDFVDALEDS stands 3.38; under FGEDGIMRHDRLRFRDFVDALEDS, 4.07.
The same measure, in the same setting: next, FGEDGIIRHDRLRFRDFVDALEDS: 3.51.
For FGEDGIVRHDRLRFRDFVDALEDS, the protein stability index worked out at 3.72.
The same measure, in the same setting: next, FGEDGIERHDRLRFRDFVDALEDS: 4.84; FGEDGITRHDRLRFRDFVDALEDS: 2.71; FGEDGICRHDRLRFRDFVDALEDS: 2.95.
On the same count and under the same terms, next, FGEDGIPRHDRLRFRDFVDALEDS: 3.88; FGEDGINRHDRLRFRDFVDALEDS: 4.02; FGEDGIQRHDRLRFRDFVDALEDS: 3.36.
For FGEDGIYRHDRLRFRDFVDALEDS, the protein stability index turned out to be 2.98.
On the same count and under the same terms, under FGEDGILRHDRLRFRDFVDALEDS stands 3.13.
On the same count and under the same terms, under FGEDGISRHDRLRFRDFVDALEDS stands 2.97.
On the same count and under the same terms, under FGEDGIDRHDRLRFRDFVDALEDS stands 4.33.
In the case of FGEDGIGRHDRLRFRDFVDALEDS, the protein stability index was found to be 3.7.
Same read-out and setting: next, FGEDGIARHDRLRFRDFVDALEDS: 3.42.
With FGEDKIFRHDRLRFRDFVDALEDS, the protein stability index came to 2.12.
Regarding FGEDNIFRHDRLRFRDFVDALEDS, the protein stability index turned out to be 2.34.
On the same count and under the same terms, under FGEDTIFRHDRLRFRDFVDALEDS stands 2.88.
Still for that read-out and setting: under FGEDYIFRHDRLRFRDFVDALEDS stands 2.59.
On the same count and under the same terms, under FGEDAIFRHDRLRFRDFVDALEDS stands 3.02; under FGEDCIFRHDRLRFRDFVDALEDS, 2.67.
FGEDQIFRHDRLRFRDFVDALEDS: the protein stability index came out at 3.23.
The same measure, in the same setting: next, FGEDFIFRHDRLRFRDFVDALEDS: 1.66; FGEDPIFRHDRLRFRDFVDALEDS: 3.37.
On to FGEDHIFRHDRLRFRDFVDALEDS, for which the protein stability index is 3.17.
Still for that read-out and setting: next, FGEDMIFRHDRLRFRDFVDALEDS: 3.23; FGEDDIFRHDRLRFRDFVDALEDS: 3.5.
On the same count and under the same terms, next, FGEDWIFRHDRLRFRDFVDALEDS: 1.4; FGEDIIFRHDRLRFRDFVDALEDS: 2.86; FGEDVIFRHDRLRFRDFVDALEDS: 3.19.
The same measure, in the same setting: next, FGEDEIFRHDRLRFRDFVDALEDS: 3.68.
With FGEDRIFRHDRLRFRDFVDALEDS, the protein stability index came to 3.02.
FGEDSIFRHDRLRFRDFVDALEDS: the protein stability index amounted to 1.95.
Still for that read-out and setting: under FGEDLIFRHDRLRFRDFVDALEDS stands 2.54; under FGEDGVFRHDRLRFRDFVDALEDS, 2.76; under FGEDGEFRHDRLRFRDFVDALEDS, 4.52.
The same measure, in the same setting: next, FGEDGQFRHDRLRFRDFVDALEDS: 3.86; FGEDGLFRHDRLRFRDFVDALEDS: 2.3.
On the same count and under the same terms, under FGEDGNFRHDRLRFRDFVDALEDS stands 3.46; under FGEDGTFRHDRLRFRDFVDALEDS, 2.95.
With FGEDGDFRHDRLRFRDFVDALEDS, the protein stability index is 4.38.
Same read-out and setting: under FGEDGAFRHDRLRFRDFVDALEDS stands 2.23; under FGEDGYFRHDRLRFRDFVDALEDS, 2.24; under FGEDGHFRHDRLRFRDFVDALEDS, 4.
On the same count and under the same terms, under FGEDGWFRHDRLRFRDFVDALEDS stands 1.96; under FGEDGKFRHDRLRFRDFVDALEDS, 2.7; under FGEDGFFRHDRLRFRDFVDALEDS, 1.33.
The same measure, in the same setting: under FGEDGCFRHDRLRFRDFVDALEDS stands 2.33; under FGEDGSFRHDRLRFRDFVDALEDS, 2.74; under FGEDGMFRHDRLRFRDFVDALEDS, 1.97.
FGEDGGFRHDRLRFRDFVDALEDS: the protein stability index was found to be 3.65.
Still for that read-out and setting: under FGEDGPFRHDRLRFRDFVDALEDS stands 3.18.
On the same count and under the same terms, next, FGEDGRFRHDRLRFRDFVDALEDS: 3.72; FGERGIFRHDRLRFRDFVDALEDS: 2.74.
The same measure, in the same setting: under FGEWGIFRHDRLRFRDFVDALEDS stands 1.72; under FGEMGIFRHDRLRFRDFVDALEDS, 1.79.
